# How the values were obtained:
# anti-VEGF IgG antibody [1] = molecular target: T1, anti-VEGF IgG antibody (DyLight-labelled in the FACS analyses.); assay: FACS of eCPX3.0 clones at 3 concentrations of DyLight labeled anti-VEGF
# T1 construct: It was DyLight-labelled in the FACS analysis; also called anti-VEGF antibody; DyLight labeled anti-VEGF
# anti-VEGF scFv AB = molecular target: T2, anti-VEGF scFv AB; assay: FACS, peptide displayed on E. coli
# T2 construct: VL-linker-VH designed from ranibizumab; also called anti-VECF scFv
# T2 sequence (scFv, as listed by the source): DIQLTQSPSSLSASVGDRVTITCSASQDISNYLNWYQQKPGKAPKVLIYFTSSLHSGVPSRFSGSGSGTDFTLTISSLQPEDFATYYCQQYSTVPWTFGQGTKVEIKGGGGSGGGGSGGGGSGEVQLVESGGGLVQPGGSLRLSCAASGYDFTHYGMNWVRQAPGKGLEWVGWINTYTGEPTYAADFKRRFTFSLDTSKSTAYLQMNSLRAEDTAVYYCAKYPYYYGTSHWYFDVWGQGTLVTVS
# anti-VEGF IgG antibody [2] = molecular target: T1, anti-VEGF IgG antibody; assay: method not stated
# T1 sequence (VH, as listed by the source limits assumed, chain 1 of 2): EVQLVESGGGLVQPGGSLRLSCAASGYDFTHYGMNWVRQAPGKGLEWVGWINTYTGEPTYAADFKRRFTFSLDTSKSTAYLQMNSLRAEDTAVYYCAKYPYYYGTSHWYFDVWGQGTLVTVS
# T1 sequence (VL, as listed by the source limits assumed, chain 2 of 2): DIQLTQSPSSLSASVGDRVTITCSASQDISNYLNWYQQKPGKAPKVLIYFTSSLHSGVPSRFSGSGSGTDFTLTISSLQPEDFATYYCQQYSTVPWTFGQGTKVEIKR
binder,measurement,setting,value
PCSAWQSMVEQRCYFG [JS1827],fold higher affinity than 306P,anti-VEGF IgG antibody [1],≥ 10 fold
GAMACYNIFEYWCSAMK (also called 315MM) [JS315],binding result,anti-VEGF scFv AB,binds
GHGMCYTILEDHCDRVR (also called 292MM) [JS292],binding result,anti-VEGF scFv AB,binds
GVGLCYTILEQWCEMGR (also called 313MM) [JS313],binding result,anti-VEGF scFv AB,binds
PCSKWESMVLQSCYFG [JS1829],fold higher affinity than 306P,anti-VEGF IgG antibody [1],≥ 10 fold
SCTAWQSMVEQRCYFG [JS1825],fold higher affinity than 306P,anti-VEGF IgG antibody [1],≥ 10 fold
VHAWEQLVIQELYHC (also called 311MM) [JS311],binding result,anti-VEGF scFv AB,binds
ATAVWNSMVKQSCYMQG (also called 283MM) [JS283],binding result,anti-VEGF scFv AB,binds
PCSEWQSMVQPRCYYGG [JS306],Kd,anti-VEGF IgG antibody [2],> 600 nM
